For three variants, response (% FtsZ in pellet) results are on record in paper PMC2920321, “Characterization of ftsZ Mutations that Render Bacillus subtilis Resistant to MinC” (PLoS ONE, 2010).

The chains are these.
B1: wild type FtsZ (Bacillus subtilis) [B. subtilis] / itself (parent)
chain: MLEFETNIDGLASIKVIGVGGGGNNAVNRMIENEVQGVEYIAVNTDAQALNLSKAEVKMQIGAKLTRGLGAGANPEVGKKAAEESKEQIEEALKGADMVFVTAGMGGGTGTGAAPVIAQIAKDLGALTVGVVTRPFTFEGRKRQLQAAGGISAMKEAVDTLIVIPNDRILEIVDKNTPMLEAFREADNVLRQGVQGISDLIATPGLINLDFADVKTIMSNKGSALMGIGIATGENRAAEAAKKAISSPLLEAAIDGAQGVLMNITGGTNLSLYEVQEAADIVASASDQDVNMIFGSVINENLKDEIVVTVIATGFIEQEKDVTKPQRPSLNQSIKTHNQSVPKREPKREEPQQQNTVSRHTSQPADDTLDIPTFLRNRNKRG

This experiment covers variants of B1. Nature of the experiment: sedimentation assay (ultracentrifugation). As to conditions: with itself, 10 µM FtsZ, 50 mM Hepes/NaOH, 50 mM KCl, 10 mM MgCl2, pH 7.5, 30°C, 5 min, read off a plot.

As for MLEFETNIDGLASIKVIGVGGGGNNAVNRMIENEVQGVEYIAVNTDAQALNLSKAEVKMQIGAKLTRGLGAGANPEVGKKAAEESKEQIEEALKGADMVFVTAGMGGGTGTGAAPVIAQIAKDLGALTVGVVTRPFTFEGRKRQLQAAGGISAMKEAVDTLIVIPNDRILEIVDKNTPMLEAFREADNVLRQGVQGISDLIATPGLINLDFADVKTIMSNKGSALMGIGIATGENRAAEAAKKAISSPLLEAAIDGAQGVLMNITGGTNLSLYEVQEAADIVASTSDQDVNMIFGSVINENLKDEIVVTVIATGFIEQEKDVTKPQRPSLNQSIKTHNQSVPKREPKREEPQQQNTVSRHTSQPADDTLDIPTFLRNRNKRG [chain 1 A285T], the response (% FtsZ in pellet) runs as follows: (1 mM GDP (control)) 28; (1 mM GTP) 25.

Turning to MLEFETNIDGLASIKVIGVGGGGNNAVNRMIENEVQGVEYIAVNTDAQALNLSKAEVKMQIGAKLTRGLGAGANPEVGKKAAEESKEQIEEALKGADMVFVTAGMGGGTGTGAAPVIAQIAKDLGALTVGVVTRPFTFEGRKRQLQAAGGISAMKEAVDTLIVIPNDRILEIVDKNTPMLEAFREADNVLRQGVQGISDLIATPGLINLDFADVKTIMSNKGSALMGIGIATGENRAAEAAKKAISSPLLEAAIDGAQGVLMNITGGTNLSLYEVQEAADIVASASDQDVNMIFGSVINENPKDEIVVTVIATGFIEQEKDVTKPQRPSLNQSIKTHNQSVPKREPKREEPQRQNTVSRHTSQPADDTLDIPTFLRNRNKRG [chain 1 L302P Q353R], the response (% FtsZ in pellet) came to 18 (1 mM GDP (control)) and 29 (1 mM GTP).

With MLEFETNIDGLASIKVIGVGGGGNNAVNRMIENEVQGVEYIAVNTDAQALNLSKAEVKMQIGAKLTRGLGAGANPEVGKKAAEESKEQIEEALKGADMVFVTAGMGGGTGTGAAPVIAQIAKDLGALTVGVVTRPFTFEGRKRQLQAAGGISAMKEAVDTLIVIPNDRILEIVDKNTPMLEAFREADNVLRQGVQGISDLIATPGLINLDFADVKTIMLNKGSALMGIGIATGENRAAEAAKKAISSPLLEAAIDGAQGVLMNITGGTNLSLYEVQEAADIVASASDQDVNMIFGSVINENLKDEIVVTVIATGFIEQEKDVTKPQRPSLNQSIKTHNQSVPKREPKREEPQQQNTVSRHTSQPADDTLDIPTFLRNRNKRG [chain 1 S219L], the response (% FtsZ in pellet) runs as follows: (1 mM GDP (control)) 16; (1 mM GTP) 51.
